Test results taken from patent US20090036380A1 (YEDA RESEARCH AND DEVELOPMENT, published 2009).
Blank lines part the entries; values can stand above or below the binder they belong to. Ends that are not written are not given here.

Key:
[1] = target: T1, full length Karet protein (RRS bait) (mouse, UniProt Q8K2Y9 1-453); test: RRS screen in yeast, whole Karet protein against an embryonic mouse brain library
T1 construct: Yeast RRS construct; fusion partner not described; also called whole Karet protein
Description: The Ras rescue system (RRS) method is based on translocation of a mammalian cytoplasmic Ras to the plasma membrane, resulting in activation of a viability pathway in yeast (Broder, Y. C., S. Katz, and A. Aronheim. Curr Biol, 1998. 8 (20): p. 1121-4; Aronheim, A. Methods Mol Biol, 2004. 250: p. 251-62; Hubsman, M., G. et al. Nucleic Acids Res, 2001. 29 (4): p. E18).

[2] = target: T2, recombinant PTB-domain containing Karet(1-228) truncation mutant (mouse, UniProt Q8K2Y9 1-228); test: in-vitro precipitation with biotinylated peptide on streptavidin beads, blot anti-His
T2 construct: Recombinant protein for in-vitro precipitation; also called recombinant Karet protein; Karet PTB domain
T2 sequence: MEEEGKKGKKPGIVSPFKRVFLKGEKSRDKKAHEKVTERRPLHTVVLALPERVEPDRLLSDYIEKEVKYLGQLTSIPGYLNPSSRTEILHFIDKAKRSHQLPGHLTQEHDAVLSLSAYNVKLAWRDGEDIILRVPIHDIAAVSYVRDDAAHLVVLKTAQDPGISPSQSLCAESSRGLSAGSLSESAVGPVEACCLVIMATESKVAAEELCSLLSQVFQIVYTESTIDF

binding result [1]: binds
B1: Cyclin D1, mRNA (other, mouse, UniProt P25322 1-295, looked up)
chain: MEHQLLCCEVETIRRAYPDTNLLNDRVLRAMLKTEETCAPSVSYFKCVQKEIVPSMRKIVATWMLEVCEEQKCEEEVFPLAMNYLDRFLSLEPLKKSRLQLLGATCMFVASKMKETIPLTAEKLCIYTDNSIRPEELLQMELLLVNKLKWNLAAMTPHDFIEHFLSKMPEADENKQTIRKHAQTFVALCATDVKFISNPPSMVAAGSVVAAMQGLNLGSPNNFLSCYRTTHFLSRVIKCDPDCLRACQEQIEALLESSLRQAQQNVDPKATEEEGEVEEEAGLACTPTDVRDVDI
notes: RRS library clone (embryonic mouse brain)

binding result [1]: binds
B2: Cysteine and glycine-rich protein 1 (Csrp1), mRNA (other, mouse, UniProt P97315 1-193, looked up)
chain: MPNWGGGKKCGVCQKTVYFAEEVQCEGNSFHKSCFLCMVCKKNLDSTTVAVHGEEIYCKSCYGKKYGPKGYGYGQGAGTLSTDKGESLGIKHEEAPGHRPTTNPNASKFAQKIGGSERCPRCSQAVYAAEKVIGAGKSWHKSCFRCAKCGKGLESTTLADKDGEIYCKGCYAKNFGPKGFGFGQGAGALVHSE
notes: as for B1

binding result [2]: binds
B3: biotinylated synthetic TrkA juxtamembrane region peptide, position 458-484 (peptide)
peptide: MSLHFMTLGGSSLSPTEGKGSGLQGHI
modifications: also: biotinylated (position not given here)
notes: Immobilized on streptavidin beads; also called TrkA peptide
